Literature values as cited in patent publication US6022890A, “Immunosuppressant tetracyclic triterpenes” (Merck & Co., Inc., priority 1998, dated 2000).

Target: T1, Kv 1.3 channels (CHO cells transfected with Kv 1.3 channels) (Homo sapiens, UniProt P22001)
T1 construct: expressed in transfected cells; host or cells: CHO cells
Settings: stated for the reference blocker that defines the efflux window

T1 sequence (P22001 whole entry): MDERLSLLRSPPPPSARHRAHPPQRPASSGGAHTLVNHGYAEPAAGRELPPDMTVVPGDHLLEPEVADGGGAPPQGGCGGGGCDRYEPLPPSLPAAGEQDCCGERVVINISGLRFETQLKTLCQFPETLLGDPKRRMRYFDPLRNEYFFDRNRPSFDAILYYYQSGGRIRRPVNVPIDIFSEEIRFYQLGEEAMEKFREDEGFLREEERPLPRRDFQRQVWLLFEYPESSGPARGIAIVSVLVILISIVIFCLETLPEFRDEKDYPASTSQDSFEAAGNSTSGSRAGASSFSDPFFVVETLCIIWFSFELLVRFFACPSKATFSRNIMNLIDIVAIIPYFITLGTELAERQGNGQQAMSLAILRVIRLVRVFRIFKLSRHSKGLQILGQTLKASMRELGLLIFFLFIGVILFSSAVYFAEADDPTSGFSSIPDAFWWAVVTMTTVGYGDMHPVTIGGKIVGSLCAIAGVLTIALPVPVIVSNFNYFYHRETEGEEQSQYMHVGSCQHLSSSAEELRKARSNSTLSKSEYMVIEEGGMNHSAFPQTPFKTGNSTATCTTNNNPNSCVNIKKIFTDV

For “margatoxin (TIINVKCTSPKQCLPPCKAQFGQSAGAKCMNGKCKCYPH; UniProt P40755 1-39, looked up)”, the IC50 is given as 0.1 nM.
